Measured values: publication PMC1277818, “Substrate specificity analysis of protein kinase complex Dbf2-Mob1 by peptide library and proteome array screening” (BMC Biochemistry, 2005)

B1: YLR303W: GST fusion yeast protein on proteome chip (protein, UniProt P06106 2-444, looked up)
Homocysteine/cysteine synthase: PSHFDTVQLHAGQENPGDNAHRSRAVPIYATTSYVFENSKHGSQLFGLEVPGYVYSRFQNPTSNVLEERIAALEGGAAALAVSSGQAAQTLAIQGLAHTGDNIVSTSYLYGGTYNQFKISFKRFGIEARFVEGDNPEEFEKVFDERTKAVYLETIGNPKYNVPDFEKIVAIAHKHGIPVVVDNTFGAGGYFCQPIKYGADIVTHSATKWIGGHGTTIGGIIVDSGKFPWKDYPEKFPQFSQPAEGYHGTIYNEAYGNLAYIVHVRTELLRDLGPLMNPFASFLLLQGVETLSLRAERHGENALKLAKWLEQSPYVSWVSYPGLASHSHHENAKKYLSNGFGGVLSFGVKDLPNADKETDPFKLSGAQVVDNLKLASNLANVGDAKTLVIAPYFTTHKQLNDKEKLASGVTKDLIRVSVGIEFIDDIIADFQQSFETVFAGQKP
modifications: GST tag
notes: GST fusion yeast protein on proteome chip
B2: YFR033C: GST fusion yeast protein on proteome chip (protein, UniProt P00127 1-147, looked up)
Cytochrome b-c1 complex …: MGMLELVGEYWEQLKITVVPVVAAAEDDDNEQHEEKAAEGEEKEEENGDEDEDEDEDEDDDDDDDEDEEEEEEVTDQLEDLREHFKNTEEGKALVHHYEECAERVKIQQQQPGYADLEHKEDCVEEFFHLQHYLDTATAPRLFDKLK
modifications: GST fusion
notes: as for B1
B3: YBL024W: GST fusion yeast protein on proteome chip (protein, UniProt P38205 1-684, looked up)
Multisite-specific …: MARRKNFKKGNKKTFGARDDSRAQKNWSELVKENEKWEKYYKTLALFPEDQWEEFKKTCQAPLPLTFRITGSRKHAGEVLNLFKERHLPNLTNVEFEGEKIKAPVELPWYPDHLAWQLDVPKTVIRKNEQFAKTQRFLVVENAVGNISRQEAVSMIPPIVLEVKPHHTVLDMCAAPGSKTAQLIEALHKDTDEPSGFVVANDADARRSHMLVHQLKRLNSANLMVVNHDAQFFPRIRLHGNSNNKNDVLKFDRILCDVPCSGDGTMRKNVNVWKDWNTQAGLGLHAVQLNILNRGLHLLKNNGRLVYSTCSLNPIENEAVVAEALRKWGDKIRLVNCDDKLPGLIRSKGVSKWPVYDRNLTEKTKGDEGTLDSFFSPSEEEASKFNLQNCMRVYPHQQNTGGFFITVFEKVEDSTEAATEKLSSETPALESEGPQTKKIKVEEVQKKERLPRDANEEPFVFVDPQHEALKVCWDFYGIDNIFDRNTCLVRNATGEPTRVVYTVCPALKDVIQANDDRLKIIYSGVKLFVSQRSDIECSWRIQSESLPIMKHHMKSNRIVEANLEMLKHLLIESFPNFDDIRSKNIDNDFVEKMTKLSSGCAFIDVSRNDPAKENLFLPVWKGNKCINLMVCKEDTHELLYRIFGIDANAKATPSAEEKEKEKETTESPAETTTGTSTEAPSAAN
modifications: GST tag
notes: as for B1
B4: YLL008W: GST fusion yeast protein on proteome chip (protein, UniProt P32892 1-752, looked up)
ATP-dependent RNA helicase …: MVVGTKKYSNLDFVPTISDSEDDVPILDSSDDEKVEAKKTTKKRKGKNNKKKVSEGDNLDEDVHEDLDAGFKFDLDADDTTSNFQGWNFLAEGESNKDDAEAFVKKDVDLDKIIRRKGGLVKMAHIDSKQEEETEKEKVEKENDSDDEELAMDGFGMGAPMNNGDENQSEEEEEEEEKEEEEEEEEEQEEMTLEKGGKDDEIDEEDDSEEAKADFYAPETEGDEAKKQMYENFNSLSLSRPVLKGLASLGYVKPSPIQSATIPIALLGKDIIAGAVTGSGKTAAFMIPIIERLLYKPAKIASTRVIVLLPTRELAIQVADVGKQIARFVSGITFGLAVGGLNLRQQEQMLKSRPDIVIATPGRFIDHIRNSASFNVDSVEILVMDEADRMLEEGFQDELNEIMGLLPSNRQNLLFSATMNSKIKSLVSLSLKKPVRIMIDPPKKAATKLTQEFVRIRKRDHLKPALLFNLIRKLDPTGQKRIVVFVARKETAHRLRIIMGLLGMSVGELHGSLTQEQRLDSVNKFKNLEVPVLICTDLASRGLDIPKIEVVINYDMPKSYEIYLHRVGRTARAGREGRSVTFVGESSQDRSIVRAAIKSVEENKSLTQGKALGRNVDWVQIEETNKLVESMNDTIEDILVEEKEEKEILRAEMQLRKGENMLKHKKEIQARPRRTWFQSESDKKNSKVLGALSRNKKVTNSKKRKREEAKADGNGARSYRKTKTDRIADQERTFKKQKSTNSNKKKGFKSRR
modifications: GST tag
notes: as for B1
B5: YLR007W: GST fusion yeast protein on proteome chip (protein, UniProt Q07913 1-336, looked up)
Non-structural maintenance of …: MEVHEEQVSAPVTGDATAKYLLQYILSARGICHENALILALMRLETDASTLNTEWSIQQWVDKLNDYINAINVKLNLLGYKIIRINHGIGRNAVTLKAKQNFESFEDNTAIRAHNNDYAVLQSIVLPESNRFFVYVNLASTEETKLATRFNQNEIEFMKWAIEQFMISGETIVEGPALETSIIVKEVNRILVAATGDSNLAKWRKFSTFTVGSTNLFQFQELTATDIEDLLLRLCELKWFYRTQEGKFGIDLRCIAELEEYLTSMYNLNTCQNCHKLAIQGVRCGNESCREENEETGENSLSQIWHVDCFKHYITHVSKNCDRCGSSLITEGVYVI
modifications: GST tag
notes: as for B1
B6: YAL051W: GST fusion yeast protein on proteome chip (protein, UniProt P39720 1-1047, looked up)
Oleate-activated …: MVENSTQKAPHAGNDDNSSTKPYSEAFFLGFNNPTPGLEAEHSSTSPAPENSETHNRKRNRILFVCQACRKSKTKCDREKPECGRCVKHGLKCVYDVSKQPAPRIPSKDAIISRLEKDMFYWKDKAMKLLTEREVNESGKRSASPINTNNASGDSPDTKKQHKMEPIYEQSGNGDINNGTRNDIEINLYRSHPTMIMSKVMKREVKPLSENYIIIQDCFLKILVTSVFLDTSKNTMIPALTANANITRAQPSVANNLLKLKEMLIRQCQTEDEKNRVNEFTDRILQNTNSNRNLKIGMLLSMLYNSVGYQYLEDHCPQGGEYSDLLRNLINECEAILPSYEIIERYKNHFYEYVYPSLPFIELEIFEESLSQTIFPDPNNPSKVQIRMGSTHLRAKVENLSLLLVILKLSYMSIRFLDHSTADSSFYLSKEIIDKYPIPNDFILLSQRCLASENWCACANENIISCLLYIWSFFAFSPEEGDFFLEHPTDVISSLIMMLSTSIGLHRDPSDFPQLISPSTSDKRTLNHRRILWLSIVTVCSFEASLKGRHSVSPISLMALFLNIKDPDSLTVYMNRVRGDLSDINNHKLLRIHKFTFKRAQLALLLSDLDNLTMTYYGSFHLHSIEFIREKIEIFVEENFPIVPLKSVAQDKSDLDDMNVISEMNILSSENSSSFHNRIMNKLLMLRTSMAVFLHFETLITKDKSIFPFYKKYFMVSCMDALSLINYFNKFFNGEYRHAISSLTSFNVTKFIQLALSSTIFSLLGIILRIGLAIHMLSSEVQKLSGTTDPRIKELNTKVEKFSTLQRDLESALEGIYCSASEHLRFTYFPVFKMLALFDVIVQRMRKGELWHGIFTMIQMEQMHSRIIKTLSITLGVKLDKKDRLLEELMACNHVANFSVEDIDELNRNIKKEIQISSGLKPPVNTIDLTNGEPFGNAVPTFTKTWSSSLDNLEKLSSAAAVGQSLDYNSGLRQGPLAGGGSKEQTPIAGMNNLNNSINATPIVDNSSGSQLPNGFDRGQANNTPFPGYFGGLDLFDYDFLFGNDFA
modifications: GST tag
notes: as for B1

Molecular target: T1, FHHDbf2-H6Mob1TM9 (Saccharomyces cerevisiae, UniProt P22204+P40484)
T1 construct: made in house; host or cells: Hi5 insect cells (baculovirus)
T1 sequence (P22204 1-572): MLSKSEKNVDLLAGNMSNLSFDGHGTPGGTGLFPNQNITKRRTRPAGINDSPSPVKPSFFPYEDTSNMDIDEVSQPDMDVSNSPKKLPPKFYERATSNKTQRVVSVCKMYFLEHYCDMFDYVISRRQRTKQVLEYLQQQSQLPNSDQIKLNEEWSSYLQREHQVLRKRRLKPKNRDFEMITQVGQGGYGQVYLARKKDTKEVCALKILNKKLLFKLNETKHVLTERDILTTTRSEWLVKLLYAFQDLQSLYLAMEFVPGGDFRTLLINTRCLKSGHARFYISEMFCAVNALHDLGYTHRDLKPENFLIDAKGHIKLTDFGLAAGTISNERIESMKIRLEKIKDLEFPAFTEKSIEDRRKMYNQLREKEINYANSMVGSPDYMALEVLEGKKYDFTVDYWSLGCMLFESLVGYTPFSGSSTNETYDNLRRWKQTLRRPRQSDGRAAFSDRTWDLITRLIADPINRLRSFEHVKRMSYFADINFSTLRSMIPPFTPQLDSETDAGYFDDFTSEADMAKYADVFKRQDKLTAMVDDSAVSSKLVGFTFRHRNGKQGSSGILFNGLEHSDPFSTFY
T1 sequence (P40484 1-314 partner): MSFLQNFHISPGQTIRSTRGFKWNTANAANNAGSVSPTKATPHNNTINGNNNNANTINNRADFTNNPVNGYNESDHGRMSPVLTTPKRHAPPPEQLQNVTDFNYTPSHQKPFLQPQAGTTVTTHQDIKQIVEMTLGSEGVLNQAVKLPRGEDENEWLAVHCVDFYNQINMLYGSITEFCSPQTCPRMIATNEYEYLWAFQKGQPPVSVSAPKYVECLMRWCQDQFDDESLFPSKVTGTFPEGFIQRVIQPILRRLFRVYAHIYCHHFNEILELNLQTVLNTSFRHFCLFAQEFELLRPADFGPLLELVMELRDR
Experiment: Yeast proteome chip assay
Format: biochemical
Settings: Table 3; GST fusion proteins on proteome chip, [γ-33P]ATP, chips in duplicate, computer analysis
How it was run: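 GST-tagged yeast proteins (~4,400 strains) spotted on proteome microarrays, probed in duplicate with FHHDbf2-H6Mob1TM9 in DKB plus [γ-33P]ATP; kinase-dead Dbf2(N305A) and kinase-free buffer served as controls. Positives: 3 of 4 spots ≥2 SD above background, fourth ≥1.5 SD.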

In order of falling “Slide Signal (after normalization)” value:
1. B3  0.1294
2. B5  0.0988
3. B1  0.0985
4. B4  0.0702
5. B2  0.042

Same assay, conditions: Table 4, the 25 proteins with highest signal relative to protein amount; [γ-33P]ATP, chips in duplicate

With B6 the “Slide Signal (after normalization)” value was 81.8589.
